Reference: PMC4004224 (Journal of the American Chemical Society, 2014)

Biological target: T1, recombinant human Rnase inhibitor (human, UniProt P13489 1-461)
T1 sequence (looked up): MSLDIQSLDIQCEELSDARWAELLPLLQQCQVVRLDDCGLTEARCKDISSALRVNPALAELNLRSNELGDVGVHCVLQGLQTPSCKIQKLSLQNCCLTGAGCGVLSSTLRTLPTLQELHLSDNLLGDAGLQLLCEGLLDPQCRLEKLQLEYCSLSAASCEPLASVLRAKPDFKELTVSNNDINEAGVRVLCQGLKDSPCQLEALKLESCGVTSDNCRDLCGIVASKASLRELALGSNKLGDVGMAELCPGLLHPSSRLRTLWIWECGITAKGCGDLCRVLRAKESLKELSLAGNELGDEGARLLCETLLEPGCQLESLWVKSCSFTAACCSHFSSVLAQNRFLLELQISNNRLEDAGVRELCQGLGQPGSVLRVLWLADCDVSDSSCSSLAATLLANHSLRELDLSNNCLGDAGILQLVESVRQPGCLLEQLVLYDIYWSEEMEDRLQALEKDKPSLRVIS

B1: pyronin-conjugated bovine Rnase A (enzyme, UniProt P61823 27-150, looked up)
chain: KETAAAKFERQHMDSSTSAASSSNYCNQMMKSRNLTKDRCKPVNTFVHESLADVQAVCSQKNVACKNGQTNCYQSYSTMSITDCRETGSSKYPNCAYKTTQANKHIIVACEGNPYVPVHFDASV
modifications: lysines conjugated to the fluorinated pyronin from bromopyronin 5; 0.3-0.6 fluorophores per protein
  binding result: binds
